The nanobody polyreactivity screen of Harvey et al. (2022)

Experiment: yeast display, Sf9 membrane polyspecificity reagent, FACS + sequencing; frameworks hold sequencing errors
How it was run: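 Using colony PCR, genes from sorted yeast display clones were amplified, then sequenced on MiSeq at 2 × 250 and filtered by CDR length. The clones had been stained with 10% biotinylated, detergent-solubilized Sf9 membrane reagent for 1 hour at 4 °C and sorted by FACS into low and high (top ~1%) gates on anti-HA and streptavidin fluorescence. Polyreactivity labels come from the gate of origin.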
In the case of “QVQLVESGGGLVQAGGSLRLICAASGSTIGSYVMGWYRTAPGKERELVAAITSGARTNYADSVKGRFTISRDNAKNTVYLQMNSLKPEDTAVYYCAKYYRPAYVYRIAGYYWGQGTQVTVSS”, the “polyreactivity (PSR sort gate)” value was “high polyreactivity”.
For “QVQLVESGGGLVQAGGSLRLICAASGSTILVYAMGCYRQAPWKEMELVAAITQIDGSTYYADSVKGRFTISRDNAKNTVYLQMNSLKPEDTAVFYCAARFFWTYEYDYWGQATQVTVSS”, the “polyreactivity (PSR sort gate)” value was “low polyreactivity”.
In the case of “QVQLVESGGGLVQAGGSLRLICAASGSTLDKYAMGWDRPAPGKERELVAAISSSGGSTYYADSVKGRFTISRDNAKNTVYLQMNSLKPEDTAVYYCAARFFRGRYLDDYWGQGTQVTVSS”, the “polyreactivity (PSR sort gate)” value was “high polyreactivity”.
With “QVQLVESGGGLVQAGGSLRLICAASGSTLYRYAMGWYRPAPGKERELVAAISSAGSTHYADSVKGRFTISRDNAKNTVYLQMNSLKPEDTAVYYCAAKRYLKYGYWGQGTQVTVSS” the “polyreactivity (PSR sort gate)” value was “high polyreactivity”.
For “QVQLVESGGGLVQAGGSLRLICAASGSTYHYAMGWYRQAPGKERELVASITWRGDTTYYADSVKGRFTISRDNAKYNVYLQMNSLKPEDTAVYYCAAYHFSFGWIRVDYWGQGTQVTVSS”, the “polyreactivity (PSR sort gate)” value was “high polyreactivity”.
For “QVQLVESGGGLVQAGGSLRLICAASGSYAMGWYRQAPGKERELVASIDGPGGSTYYADSVKGRFTISRDNAKNTVYLQMNSLKPEDTAVYYCEDWAPGLYDYWGQGTQVTVSS”, the “polyreactivity (PSR sort gate)” value was “low polyreactivity”.
In the case of “QVQLVESGGGLVQAGGSLRLICAASGYIFYAYALGWYRQAPGKERELVAAITDNGVSTFYADSVKGRFTISRDNAKNTVYLHMKSLKPEETAVYYCATSSTHSRGDEYWGQGTQVTVSS”, the “polyreactivity (PSR sort gate)” value was “low polyreactivity”.
In the case of “QVQLVESGGGLVQAGGSLRLICAASRFYTMGWYRQATVKERELVAAISWSGGDTYYADSVKGRFTISRDNAKNTVYLQMNSLKPEDTAVYYCAKKTIGSYVHEPFYYWGQGTQVTVSS”, the “polyreactivity (PSR sort gate)” value was “low polyreactivity”.
With “QVQLVESGGGLVQAGGSLRLICAASRSIFEINAMGWYSQAPGKERELVADNRRGDSTNYADSVNGRFTISRDNAKNTVYLQMNSLKPEVTAVYYCAARWRRSIYGVYPQRPYDYWGQGTQVTVSS” the “polyreactivity (PSR sort gate)” value was “high polyreactivity”.
With “QVQLVESGGGLVQAGGSLRLICAASVTTFPYYAMGWYRQAPGKERELVAAITSSGGSTYYADSVKGRFTISRDNAKNTVYLQMNSLIPEDTAVYYCAKGYGPYRQMNYWGQGTQVTVSS” the “polyreactivity (PSR sort gate)” value was “low polyreactivity”.
With “QVQLVESGGGLVQAGGSLRLICAATGITFITYVMGWYSQAPGKERELVAAISLRGGRTSYADSVKGRFTISRDNAKNTVYLQMNSLKPEDTAVYYCAARGGAYQNAYEYDYWGPGTQVTVSS” the “polyreactivity (PSR sort gate)” value was “high polyreactivity”.
For “QVQLVESGGGLVQAGGSLRLICAAYGGIFISYAMGWYRQAPWKERELVAAINYSGGSTNYADSVKGRFTLSRDNAKNTVYLQMNSLKPEDTAVYYCAARSTARYGYWGQGTQVTVSS”, the “polyreactivity (PSR sort gate)” value was “low polyreactivity”.
With “QVQLVESGGGLVQAGGSLRLICADSGFILPRNAMGWYRQAPGKERELVAAIRSSGGTTYYADSVKGRFTISRDIAKNTVYLQMNSLKPEDTAVYYCAAVTTSKFNYWGQGTQVTVSS” the “polyreactivity (PSR sort gate)” value was “low polyreactivity”.
With “QVQLVESGGGLVQAGGSLRLICADYGITFRVNAMGWYRQAPGKERELVASISRSGGSTYYADSVKGRFTISRDNAKNTVYLQMNSLKPEDTAVYYCAAAQKVLFYGRWFDYWGQCTQVTVSS” the “polyreactivity (PSR sort gate)” value was “low polyreactivity”.
With “QVQLVESGGGLVQAGGSLRLICAPSGRIFEGYAMGWYRPATRKERELVAAISRGGGSTYYADSVKGRFTISRDNAKNTVYLQMNSLIPEDTAVYYCAKVPLTYSRSGYEYDYWGQGTQVSVSS” the “polyreactivity (PSR sort gate)” value was “low polyreactivity”.
In the case of “QVQLVESGGGLVQAGGSLRLICAPSGRITLRYAIGWYRQAPRKERDFVAAITVSGGSTYYADSVKGRFTISRDNAKNTVYLMMNRLKPEDTAVYYCAVRQKTQYGSKHDYWGQGTQVTVSS”, the “polyreactivity (PSR sort gate)” value was “high polyreactivity”.
